These results are taken from article PMC9331583.

The target of the test is apolipoprotein E (human (endogenous in Huh7.5 and HMC3)) (UniProt P02649).
Chain of UniProt P02649 (P02649 19-317): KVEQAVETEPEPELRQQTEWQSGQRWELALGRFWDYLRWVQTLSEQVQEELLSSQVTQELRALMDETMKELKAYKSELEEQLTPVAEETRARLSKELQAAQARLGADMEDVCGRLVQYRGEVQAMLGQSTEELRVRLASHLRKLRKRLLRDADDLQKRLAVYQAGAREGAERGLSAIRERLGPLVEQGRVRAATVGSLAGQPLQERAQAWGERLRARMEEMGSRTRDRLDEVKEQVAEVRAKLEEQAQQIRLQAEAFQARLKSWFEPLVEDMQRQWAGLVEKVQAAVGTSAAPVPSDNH

Take “Zika envelope glycoprotein (natural protein)”: the decrease in infection of Huh7.5 cells (percent of cells positive for ZIKV envelope by FACS, relative to isotype Abs) by ZIKV particles pre-incubated with goat anti-ApoE Abs at 1.5 and 10 μg/mL came to 60%.
